Holding throughout (test): IEDB peptide-MHC binding, purified MHC/competitive/radioactivity; filed as Kd, often an IC50 or EC50 that approximates it; ≥ and ≤ were set here for values at or beyond the usual limits of such assays
The target of test [1] is HLA-A*31:01.
The target in test [2] is HLA-A*33:01.
The target of test [3] is HLA-A*68:01.
Test [4] concerns the target HLA-A*11:01.
Test [5] has as its target HLA-A*03:01.
The mark [6] stands for this setting: source organism: Vaccinia virus WR.
Setting [7] is: source organism: SARS coronavirus Tor2.
Where [8] appears, read: source organism: Mammarenavirus machupoense.
Setting [9] is: source organism: Lymphocytic choriomeningitis virus (strain WE).

Drawing on the Immune Epitope Database (IEDB), this text covers Kd for 23 sequences.

The term Kd denotes the free concentration of one partner at which half of the binding sites on the other are occupied at equilibrium, for simple one-to-one binding. As to LVVISVIFY, the Kd in test [1] (setting [6]) is 10.7 µM; in test [2] (setting [6]), no less than 66.1 µM; in test [3] (setting [6]), 5.48 µM; in test [4] (setting [6]), no less than 36.7 µM; in test [5] (setting [6]) it was no less than 24.4 µM.
In the same order, the values of YLIHDNIMY are no less than 77.9 µM, no less than 77.7 µM, no less than 26.9 µM, 14.9 µM and 10.6 µM.
In the same order, the values of STCSAVTDR are 0.119 µM, 1.39 µM, 0.0551 µM, 0.0312 µM and no less than 31 µM.
Taken in the same sequence, the figures for SSNKDPITVY were no less than 50.9 µM, no less than 70 µM, no less than 42.8 µM, 1.88 µM and no less than 70.1 µM.
Take VIGLSGDSER: the Kd in test [1] (setting [6]) is 8.89 µM; in test [2] (setting [6]), 1.18 µM; in test [3] (setting [6]), 0.182 µM; in test [4] (setting [6]), 15.9 µM; in test [5] (setting [6]), no less than 63.7 µM.
In the case of SVLCVKKFYK, the Kd in test [1] (setting [6]) was 0.000785 µM; in test [2] (setting [6]), 0.0122 µM; in test [3] (setting [6]), 0.00101 µM; in test [4] (setting [6]) it was 0.000302 µM; in test [5] (setting [6]), 0.00114 µM.
Taken in the same sequence, the figures for WVSLKKTNDK were no less than 32.7 µM, no less than 70 µM, no less than 45.5 µM, 0.608 µM and 2.09 µM.
Taken in the same sequence, the figures for IANSNIIKNK were 19.9 µM, no less than 39.3 µM, 0.212 µM, 0.0395 µM and 0.0472 µM.
Taken in the same sequence, the figures for SMGFKVTTRR were 0.0221 µM, 0.747 µM, 0.213 µM, 1.05 µM and 0.0972 µM.
Take KTNDINVRRR: the Kd amounted to 0.0179 µM in test [1] (setting [6]); 5.47 µM in test [2] (setting [6]); 0.848 µM in test [3] (setting [6]); 1.46 µM in test [4] (setting [6]); 0.0641 µM in test [5] (setting [6]).
In the same order, the values of IQRFSSLRR are 0.0559 µM, no less than 30.4 µM, 11.9 µM, 1.01 µM and 0.125 µM.
For AMDEFIQRYK, the Kd in test [1] (setting [7]) stood at 0.221 µM; in test [2] (setting [7]), 13.3 µM; in test [3] (setting [7]), 8.3 µM; in test [4] (setting [7]), 0.059 µM; in test [5] (setting [7]), 0.039 µM.
On to WIQYDKHCY, for which the Kd in test [1] (setting [6]) was 5.66 µM; in test [2] (setting [6]), no less than 60.4 µM; in test [3] (setting [6]), 2.98 µM; in test [4] (setting [6]), 0.0395 µM; in test [5] (setting [6]) it was 5.82 µM.
DLPSGFNTLK: the Kd in test [1] (setting [7]) is no less than 36.7 µM; in test [2] (setting [7]), 10.4 µM; in test [3] (setting [7]) it was 0.011 µM; in test [4] (setting [7]), 1.22 µM; in test [5] (setting [7]), 2.3 µM.
On to STSLSEEFFH, for which the Kd was 14.7 µM in test [1] (setting [8]); no less than 64.8 µM in test [2] (setting [8]); 13.2 µM in test [3] (setting [8]); 4.31 µM in test [4] (setting [8]); no less than 43.1 µM in test [5] (setting [8]).
Regarding AVFKNSFLGK, the Kd was no less than 70 µM in test [1] (source organism: Variola virus); no less than 70 µM in test [2] (source organism: Variola virus); no less than 70.1 µM in test [3] (source organism: Variola virus); no less than 69.7 µM in test [4] (source organism: Variola virus); no less than 70 µM in test [5] (source organism: Variola virus).
Take KSINKVYGRY: the Kd in test [1] (setting [6]) was 0.0643 µM; in test [2] (setting [6]), no less than 70 µM; in test [3] (setting [6]) it was no less than 33.5 µM; in test [4] (setting [6]), 1.19 µM; in test [5] (setting [6]) it was 2.61 µM.
In the case of SSPPIPMSR, the Kd in test [1] (setting [6]) worked out at 10.4 µM; in test [2] (setting [6]), 15.5 µM; in test [3] (setting [6]), 0.764 µM; in test [4] (setting [6]), 0.406 µM; in test [5] (setting [6]), 7.27 µM.
Taken in the same sequence, the figures for LSLSNLDFR were 0.0217 µM, 0.675 µM, 0.3 µM, 0.349 µM and no less than 78 µM.
For SMLTNAISSR, the Kd came to 0.117 µM in test [1] (setting [6]); 2.33 µM in test [2] (setting [6]); 0.218 µM in test [3] (setting [6]); 0.258 µM in test [4] (setting [6]); 0.505 µM in test [5] (setting [6]).
In the same order, the values of QITTDDLVK are 0.207 µM, 3.75 µM, 0.436 µM, 0.803 µM and no less than 38.9 µM.
Turning to SRILFAQEK, the Kd is no less than 38.7 µM in test [1] (setting [9]); no less than 77.7 µM in test [2] (setting [9]); 7.33 µM in test [3] (setting [9]); 0.773 µM in test [4] (setting [9]); 15.7 µM in test [5] (setting [9]).
For the sequence VFTDISMSLY, the Kd in test [1] (setting [6]) was determined as 11.6 µM; in test [2] (setting [6]), 6.76 µM; in test [3] (setting [6]), 2.3 µM; in test [4] (setting [6]), 2.29 µM; in test [5] (setting [6]) it was 8.24 µM.
